# Laboratory results: patent US6399759 (UNIVERSITY OF GEORGIA RESEARCH FOUNDATION, dated 2002)
# B1: Lima Bean Trypsin Inhibitor (other, UniProt P01056 1-83, looked up)
# chain: SGHHEHSTDXPSXSSKPCCXHCACTKSIPPQCRCTDLRLDSCHSACKSCICTLSIPAQCVCXXIXDFCYEPCKSSHSDDDNNN
# modifications: not fully specified
# Tests used:
# Assay in all cases: cell-based or functional assay
# Soli C1 = Soli C1 (Solenopsis invicta)
# Soli C2 = Soli C2 (Solenopsis invicta)
# Soli E1 = Soli E1 (Solenopsis invicta)
# Soli E2 = target: T1, Soli E2 (Solenopsis invicta)
# T1 chain: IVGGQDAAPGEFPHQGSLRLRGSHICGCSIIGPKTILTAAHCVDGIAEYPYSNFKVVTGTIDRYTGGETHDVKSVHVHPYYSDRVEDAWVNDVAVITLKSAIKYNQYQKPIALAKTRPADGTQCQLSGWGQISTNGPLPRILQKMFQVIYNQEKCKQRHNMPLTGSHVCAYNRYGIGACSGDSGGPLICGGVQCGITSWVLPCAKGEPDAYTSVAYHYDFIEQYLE
# Soli C2 (Solenopsis invicta), sequence (main, as listed by the source): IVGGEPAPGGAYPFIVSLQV
# Soli E1 (Solenopsis invicta), sequence (main, as listed by the source): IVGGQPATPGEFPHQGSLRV
# Soli C1 (Solenopsis invicta), sequence (Q7SIG2 other isoform, or with tags, fused parts or gaps): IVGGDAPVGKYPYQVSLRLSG
binder,measurement,setting,value
B1,IC50,Soli C1,18.4 nM
same,IC50,Soli C2,1.46 nM
same,IC50,Soli E1,> 50 nM
same,IC50,Soli E2,> 50 nM
